Source: publication PMC12079668
One block for each binder: values may come before it.

Tests used:
[1] = target: T1, zebrafish Cavin4a HR1 domain (residues 16-123) (zebrafish) (UniProt A1L260); assay: ITC; NbA12 at 500 μM or NbB7 at 400 μM titrated into 30 μM (monomer) cavin HR1 domain or His-MBP full-length mC1; GF150 buffer (20 mM HEPES pH 7.4, 150 mM NaCl), 25°C; fitted with a 1:1 binding ratio
T1 sequence: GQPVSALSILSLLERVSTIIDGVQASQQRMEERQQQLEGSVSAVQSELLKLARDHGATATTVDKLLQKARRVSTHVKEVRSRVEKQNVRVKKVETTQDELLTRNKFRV

[2] = target: nanobody NbB7; assay: ITC; conditions: chain shown with the change

- Kd [1]: 1490 nM
B1: Nanobody NbB7 (VHH)
VHH: QVQLQESGGGLVQAGGSLRLSCAVSGIRVNVNAMYWYRQAPGKQRELVAIITTFGSTNYADSAKGRFTISRDNTKNTVYLQMDNLKPEDTAVYYCNAPQFTDRYWGQGTQVTVSS

- Kd [2]: 892 nM
B2: mouse Cavin1 HR1 domain (residues 45–155), His-Ub-tagged, O54724 K115Q; R117Q; K118Q; K124Q; R127Q (protein)
chain: LIKSDQVNGVLVLSLLDKIIGAVDQIQLTQAQLEERQAEMEGAVQSIQGELSKLGKAHATTSNTVSKLLEQVQQVSVNVQTVQGSLERQAGQIKKLEVNEAELLRRRNFKV
